Data taken from patent US20240336909.

Assays:
[1] = molecular target: AxCT mask27 EGFR EH104 L043 version 1
[2] = molecular target: AxCT mask27 EGFR EH104 L058 version 1
[3] = molecular target: AxCT mask27 EGFR EH104 L055 version 1
[4] = molecular target: AxCT mask27 EGFR EH104 L071 version 1
[5] = molecular target: AxCT mask27 EpCAM H90.2 NCLV
[6] = molecular target: AxCT mask27 EpCAM H90.2 L075 version 1
[7] = molecular target: AxCT mask27 EpCAM H90 L001 version 1
[8] = molecular target: AxCT mask27 EpCAM H90.2 L043 version 1
[9] = molecular target: AxCT mask27 EGFR EH104 L001 version 1
[10] = molecular target: AxCT mask27 EGFR EH104 L072 version 1
[11] = molecular target: AxCT mask27 EGFR EH104 L070 version 1
[12] = molecular target: AxCT mask27 EGFR EH104 L069 version 1
[13] = molecular target: AxCT mask27 EGFR EH104 L063 version 1
[14] = molecular target: AxCT mask27 EGFR EH104 L054 version 1
[15] = molecular target: AxCT mask27 EGFR EH104 L062 version 1
[16] = molecular target: AxCT mask27 EGFR EH104 L065 version 1
[17] = molecular target: AxCT mask27 EGFR EH104 L057 version 1
[18] = molecular target: AxCT mask27 EGFR EH104 L064 version 1
[19] = molecular target: AxCT mask27 EGFR EH104 L066 version 1
[20] = molecular target: AxCT mask27 EpCAM H90.2 L041 version 1
[21] = molecular target: AxCT mask27 EpCAM H90.2 L060 version 1
[22] = molecular target: AxCT mask27 EGFR EH104 L041 version 1
[23] = molecular target: AxCT mask27 EGFR EH104 L068 version 1
[24] = molecular target: AxCT mask27 EGFR EH104 L056 version 1
[25] = molecular target: AxCT mask27 EpCAM H90.2 L040 version 1
[26] = molecular target: AxCT mask27 EGFR EH104 L040 version 1
[27] = molecular target: AxCT mask27 EpCAM H90.2 L073 version 1
[28] = molecular target: AxCT mask27 EGFR EH104 L073 version 1
[29] = molecular target: AxCT mask27 EGFR EH104 L059 version 1
[30] = molecular target: AxCT mask27 EpCAM H90.2 L076 version 1
[31] = molecular target: AxCT mask27 EGFR EH104 L067 version 1
[32] = molecular target: AxCT mask27 EGFR EH104 L061 version 1
[33] = molecular target: AxCT mask27 EpCAM H90.2 L061 version 1
[34] = molecular target: AxCT mask27 EGFR EH104 L060 version 1
[35] = molecular target: AxCT mask27 EpCAM H90.2 L059 version 1
[36] = molecular target: AxCT mask27 EpCAM H90.2 L063 version 1
[37] = molecular target: AxCT mask27 EpCAM H90.2 L064 version 1

B1: MMP-12 (protein)
chain: GPVWRKHYITYRINNYTPDMNREDVDYAIRKAFQVWSNVTPLKFSKINTGMADILVVFARGAHGDFHAFDGKGGILAHAFGPGSGIGGDAHFDEDEFWTTHSGGTNLFLTAVHEIGHSLGLGHSSDPKAVMFPTYKYVDINTFRLSADDIRGIQSLYGDPKENQRLPNPDNSEPALCDPNLSFDAVTTVGNKIFFFKDRFFWLKVSERPKTSVNLISSLWPTLPSGIEAAYEIEARNQVFLFKDDKYWLISNLRPEPNYPKSIHSFGFPNFVKKIDAAVFNPRFYRTYFFVDNQYWRYDERRQMMDPGYPKLITKNFQGIGPKIDAVFYSKNKYYYFFQGSNQFEYDFLLQRITKTLKSNSWFGC
Percent cleavage [1]: 0% | Percent cleavage [2]: 9% | Percent cleavage [3]: 72% | Percent cleavage [4]: 51% | Percent cleavage [5]: 0% | Percent cleavage [6]: 0% | Percent cleavage [7]: 91% | Percent cleavage [8]: 0% | Percent cleavage [9]: 68% | Percent cleavage [10]: 48% | Percent cleavage [11]: 19% | Percent cleavage [12]: 63% | Percent cleavage [13]: 31% | Percent cleavage [14]: 30% | Percent cleavage [15]: 51% | Percent cleavage [16]: 68% | Percent cleavage [17]: 18% | Percent cleavage [18]: 34% | Percent cleavage [19]: 16% | Percent cleavage [20]: 0% | Percent cleavage [21]: 16% | Percent cleavage [22]: 0% | Percent cleavage [23]: 9% | Percent cleavage [24]: 12% | Percent cleavage [25]: 0% | Percent cleavage [26]: 13% | Percent cleavage [27]: 36% | Percent cleavage [28]: 31% | Percent cleavage [29]: 62% | Percent cleavage [30]: 0% | Percent cleavage [31]: 26% | Percent cleavage [32]: 49% | Percent cleavage [33]: 64% | Percent cleavage [34]: 18% | Percent cleavage [35]: 71% | Percent cleavage [36]: 33% | Percent cleavage [37]: 36%
